In patent US20210395310A1, “Cyclic Peptide” (The University of Tokyo, priority 2018, published 2021):
Positions of bridges follow the written chain, without caps; N, C: chain ends. Non-standard residues stand in square brackets, D forms with d. No end group written: not given here.

Columns and labels:
HGF = target: T1, HGF (Homo sapiens, UniProt P14210); assay: Binding of cyclic peptides to immobilized HGF by SPR (Biacore T200); settings: immobilized biotinylated HGF, single cycle kinetics; for kon: read-out: Ka (association rate); for koff: read-out: Kd (dissociation rate)
T1 construct: the full-length human HGF cDNA was cloned into pEHX1.1 plasmid; made in house; host or cells: Chinese hamster ovary (CHO) cells
Protocol: (§1) Binding of the cyclic peptides to immobilized HGF was measured using surface plasmon resonance (SPR) with Biacore T200 (product of GE Healthcare). Specifically, 2000 resonance units (RU) of biotinylated HGF was immobilized onto a CAP sensor chip by using a biotin capture kit (product of GE Healthcare).
(§2) Binding of the cyclic peptides was tested by injecting varying concentrations of the cyclic peptides into an HBS EP+buffer (10 mM HEPES (pH 7.4), 150 mM NaCl, 3 mM EDTA, and 0.05% (v/v) Surfactant P20) containing 0.1% DMSO at a flow rate of 30 μl/min. Binding of the cyclic peptides to HGF was analyzed by single cycle kinetics analysis.

[1] = target: human hepatocyte growth factor (HGF), recombinant full-length, active two-chain form (human, UniProt P14210 32-728); assay: cell-based or functional assay
Sequence of human hepatocyte growth factor (HGF), recombinant full-length, active two-chain form (P14210 other isoform, or with tags, fused parts or gaps limits assumed): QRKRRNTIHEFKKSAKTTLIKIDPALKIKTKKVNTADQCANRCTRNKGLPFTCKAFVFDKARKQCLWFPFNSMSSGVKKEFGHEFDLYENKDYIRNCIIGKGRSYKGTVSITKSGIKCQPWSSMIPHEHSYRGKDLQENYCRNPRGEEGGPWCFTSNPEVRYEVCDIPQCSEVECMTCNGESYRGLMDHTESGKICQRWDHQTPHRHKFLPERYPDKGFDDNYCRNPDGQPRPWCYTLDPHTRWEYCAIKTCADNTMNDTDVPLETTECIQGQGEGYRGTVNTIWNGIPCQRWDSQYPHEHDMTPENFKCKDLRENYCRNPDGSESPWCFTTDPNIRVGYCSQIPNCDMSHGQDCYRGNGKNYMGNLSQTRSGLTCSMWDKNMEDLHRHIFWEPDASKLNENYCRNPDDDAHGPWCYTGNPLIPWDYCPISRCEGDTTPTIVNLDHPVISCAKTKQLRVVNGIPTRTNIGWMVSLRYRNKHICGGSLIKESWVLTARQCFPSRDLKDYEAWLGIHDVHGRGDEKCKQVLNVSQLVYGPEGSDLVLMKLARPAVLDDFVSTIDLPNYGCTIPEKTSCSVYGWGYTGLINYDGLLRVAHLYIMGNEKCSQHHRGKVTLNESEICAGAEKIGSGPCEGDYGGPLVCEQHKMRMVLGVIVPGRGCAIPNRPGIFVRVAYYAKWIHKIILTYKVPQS

[2] = target: T2, biotinylated full-length human HGF (human, UniProt P14210 32-728, biotinylated with a succinimidyl biotin labeling kit (sites not given)); assay: SPR, Biacore T200, biotinylated HGF on CAP chip, peptide injected, single cycle kinetics
T2 construct: also called biotinylated HGF; biotinylated hHGF
T2 sequence (P14210 other isoform, or with tags, fused parts or gaps limits assumed): as above
Protocol: as §1, §2

Row | Molecule | MET inhibitory activity (MET activation inhibition test, EHMES-1 cells) [1] [nM] | other results
1 | CC[C@H](C)[C@@H]1NC(=O)[C@H](CCCNC(=N)N)NC(=O)[C@H](Cc2ccccc2)NC(=O)[C@H](CCCCN)NC(=O)[C@@H](Cc2c[nH]c3ccccc23)NC(=O)CSC[C@@H](C(=O)NCC(N)=O)NC(=O)[C@H](CCCCN)NC(=O)[C@H](Cc2ccc(O)cc2)NC(=O)[C@H](Cc2c[nH]c3ccccc23)NC(=O)[C@H](CCCCN)NC(=O)[C@H](CO)NC1=O [HiP-12, KFRISKWYK] | – | kon (HGF): 700000 M⁻¹ s⁻¹; koff (HGF): 0.0079 s⁻¹
2 | CC[C@H](C)[C@@H]1NC(=O)[C@H](CCCCN)NC(=O)[C@H](Cc2ccccc2)NC(=O)[C@H]([C@@H](C)CC)NC(=O)[C@@H](Cc2c[nH]c3ccccc23)NC(=O)CSC[C@@H](C(=O)NCC(N)=O)NC(=O)[C@H](CCCCN)NC(=O)[C@H](Cc2ccc(O)cc2)NC(=O)[C@H](Cc2c[nH]c3ccccc23)NC(=O)[C@H](CCCCN)NC(=O)[C@H](CO)NC1=O [HiP-13, IFKISKWYK] | – | kon (HGF): 1.9e+06 M⁻¹ s⁻¹; koff (HGF): 0.004 s⁻¹
3 | {CH2CO}-[dW]KFRISKWYKC (thioether N-11 (inferred), C-terminal tail after Cys not known (drawing)) [cyclic peptide HiP-12] | ≥ 100 | Kd [2]: 12 nM
4 | {CH2CO}-[dW]NKKVSKWYKRGC (thioether N-13 (inferred)) [cyclic peptide HiP-16] | ≥ 100 | –
5 | Ac-[dW]CKVSKWSKC (thioether (positions not given here); also: thioether to Cys2 or Cys10, not given here) [cyclic peptide HiP-9] | ≥ 100 | –
6 | {CH2CO}-[dW]TRKISKWYKC (thioether N-11 (inferred)) [cyclic peptide HiP-1] | ≥ 100 | –
7 | {CH2CO}-[dW]IFKISKWYKC (thioether N-11 (inferred), C-terminal tail after Cys not known (drawing)) [cyclic peptide HiP-13] | ≥ 100 | Kd [2]: 2.1 nM
8 | {CH2CO}-[dW]QYKVSKVVYKC (thioether N-12 (inferred)) [cyclic peptide HiP-14] | ≥ 100 | –
9 | {CH2CO}-[dW]NRGINKYWKC (thioether N-11 (inferred)) [cyclic peptide HiP-15] | ≥ 100 | –
10 | Ac-[dW]RYIKLCKISKWSRC (thioether (positions not given here); also: thioether ring-closing Cys not given here (Cys7 or Cys15)) [cyclic peptide HiP-10] | ≥ 100 | –
11 | {CH2CO}-[dW]KHKISKWKKC (thioether N-11 (inferred)) [cyclic peptide HiP-6] | ≥ 100 | –
